Data: paper PMC9977783, “Ligand-specific changes in conformational flexibility mediate long-range allostery in the lac repressor” (Nature Communications, 2021)

Experiments:
LacI (Escherichia coli) = LacI (Escherichia coli) (UniProt P03023); conditions: cited from earlier work
[1] = target: the molecule itself; experiment: SEC; purified LacI(1-331) after tag removal, buffer and concentration not given
[2] = target: LacI dimeric (lac repressor, tetramerization domain removed) (Escherichia coli, UniProt P03023 1-331); experiment: BLI; no IPTG; BLI: PBS with 0.2% BSA, 0.05% Tween-20, pH 8.0, room temperature, LacI 0-40 nM, global 1:1 kinetic fit; HDX/MS: 50 mM MOPS, 200 mM NaCl, 0.5 mM TCEP, pH 7.0, equilibrated at 4 C; conditions: protein: recombinant; 6xHis removed with TEV protease; chain copies: 2; label: 5'-biotin on forward strand; blunt

For LacI (from UniProt P03023), the Kd (LacI (Escherichia coli)) is listed as 80 nM.

B1: dimeric LacI (lac repressor, residues 1-331, without the tetramerization domain) (domain or fragment, E. coli, UniProt P03023 1-331, looked up)
chain: MKPVTLYDVAEYAGVSYQTVSRVVNQASHVSAKTREKVEAAMAELNYIPNRVAQQLAGKQSLLIGVATSSLALHAPSQIVAAIKSRADQLGASVVVSMVERSGVEACKAAVHNLLAQRVSGLIINYPLDDQDAIAVEAACTNVPALFLDVSDQTPINSIIFSHEDGTRLGVEHLVALGHQQIALLAGPLSSVSARLRLAGWHKYLTRNQIQPIAEREGDWSAMSGFQQTMQMLNEGIVPTAMLVANDQMALGAMRAITESGLRVGADISVVGYDDTEDSSCYIPPLTTIKQDFRLLGQTSVDRLLQLSQGQAVKGNQLLPVSLVKRKTTLA
notes: E. coli lac repressor (LacI), residues 1-331, tetramerization domain truncated; vector pET9a-6×His-LacI(1-331); His tag removed with TEV protease; also called LacI(1-331); apo-LacI; source: E. coli BL21(AI) ΔlacI-ZYA, purified (Ni-NTA, TEV cleavage, second Ni-NTA flowthrough)
B1: binds [1].

B2: Olac (LacO1 natural operator, BLI) (dsDNA)
DNA 1: AGTAGTGGAATTGTGAGCGGATAACAATTGACATTGTGAGCGGATAACAAGATACTGAGCACATCAGC
DNA 2: GCTGATGTGCTCAGTATCTTGTTATCCGCTCACAATGTCAATTGTTATCCGCTCACAATTCCACTACT
For B2, the Kd [2] was 9.5 nM.

B3: Osyn (perfectly symmetric synthetic operator) (dsDNA)
DNA 1: AGTAGTCTAGAATTGTGAGCGCTCACAATTCTAGAGTAGT
DNA 2: ACTACTCTAGAATTGTGAGCGCTCACAATTCTAGACTACT
In the case of B3, the Kd [2] is reported as 1.1 nM.
